Blank lines part the entries; values can stand above or below the binder they belong to.
How the values were obtained:
[1] = molecular target: T1, IGF-II (amino acids 1-67) (human, UniProt P01344 25-91); test: SPR (Biacore T100): IgG captured on Protein G', IGF-II injected
T1 construct: mature; also called IGF-II (67aa); IGF2
Procedure: (§1) BIACORE® T100 and a CM5 chip coated with Protein G were utilised to set up following assay. Approximately 1000 RU of Protein G′ was immobilized on a CM5 chip using standard amine chemistry immobilization method. Entire assay consisted of three sequential injection of following four reagents 1) Candidate IgG was injected onto Protein G′ at 10 ug/ml at 5 ul/min for 180 sec.

[2] = molecular target: T1, IGF-II (amino acids 1-67); test: cell-based or functional assay
[3] = molecular target: T1, IGF-II (amino acids 1-67); test: SPR (Biacore), non-germlined IgG
IGF binding protein BP2 = molecular target: T2, IGF binding protein BP2 (UniProt P18065 36-325); test: SPR (Biacore T100): control with no IGF-II injected before the BP
T2 construct: also called IGF BP2
T2 sequence (looked up): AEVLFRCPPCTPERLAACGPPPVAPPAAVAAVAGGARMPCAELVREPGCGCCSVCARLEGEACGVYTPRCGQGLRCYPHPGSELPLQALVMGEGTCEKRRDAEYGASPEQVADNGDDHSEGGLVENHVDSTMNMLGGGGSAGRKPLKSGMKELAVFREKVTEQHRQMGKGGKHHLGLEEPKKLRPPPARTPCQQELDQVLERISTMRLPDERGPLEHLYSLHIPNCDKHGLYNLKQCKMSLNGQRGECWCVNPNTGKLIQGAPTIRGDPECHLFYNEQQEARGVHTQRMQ
Procedure: as §1

IGF binding protein BP4 = molecular target: T3, IGF binding protein BP4 (UniProt P22692 22-258); test: as above
T3 construct: also called IGF BP4
T3 sequence (looked up): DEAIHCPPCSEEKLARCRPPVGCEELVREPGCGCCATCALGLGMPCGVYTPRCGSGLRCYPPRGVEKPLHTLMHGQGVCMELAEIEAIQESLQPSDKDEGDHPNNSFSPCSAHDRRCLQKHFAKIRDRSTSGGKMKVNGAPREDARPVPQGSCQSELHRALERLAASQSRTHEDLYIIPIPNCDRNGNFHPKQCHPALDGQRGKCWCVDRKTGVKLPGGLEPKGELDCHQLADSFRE
Procedure: as §1

[4] = molecular target: T1, IGF-II (amino acids 1-67); test: SPR (Biacore T100): IgG captured on Protein G', ligand bound, then BP injected; competitor BP2
Procedure: as §1

[5] = molecular target: T1, IGF-II (amino acids 1-67); test: SPR (Biacore T100): IgG captured on Protein G', ligand bound, then BP injected; competitor BP4
Procedure: as §1

[6] = molecular target: T1, IGF-II (amino acids 1-67); test: SPR (Biacore), germlined IgG

T1 sequence (P01344 25-91): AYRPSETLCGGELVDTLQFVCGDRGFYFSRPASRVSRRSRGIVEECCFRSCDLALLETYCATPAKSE

B2: M0064-E04 IgG (antibody, V domains shown)
VH: EVQLLESGGGLVQPGGSLRLSCAASGFTFSVYDMNWVRQAPGKGLEWVSSISSSGGGTLYADSVKGRFTISRDNSKNTLYLQMNSLRAEDTAVYYCARDSDTSSYYWYYDLWGRGTLVTVSS
VL: DIQMTQSPSSLSASVGDRVTITCQASHDISNYLNWYQQKPGKAPKLLIYAASRLQSGVPSRFSGGGSGTDFSLTISSLQAEDFATYYCQQSYSFPRTFGQGTNLEIK
notes: IgG form of the Fab; also called non-germlined M0064-E04
IC50, IGF-II stimulated BaF3 cell proliferation (Guava ViaCount) [2]: ~19000 pM | Kd [3]: 520 pM | binding result (IGF binding protein BP2): no binding (tested: 50 nM) | binding result (IGF binding protein BP4): no binding (tested: 50 nM) | competition score (0 = does not compete significantly, 5 = competes strongly) [4]: 5 score 0-5 | competition score (0 = does not compete significantly, 5 = competes strongly) [5]: 5 score 0-5

B4: X0008-A01 (germlined M0064-F02 IgG) (antibody, V domains shown)
VH: EVQLLESGGGLVQPGGSLRLSCAASGFTFSNYIMWWVRQAPGKGLEWVSVISSSGGMTRYADSVKGRFTISRDNSKNTLYLQMNSLRAEDTAVYYCARDNGDYVGEKGFDIWGQGTMVTVSS
VL: DIQMTQSPSSLSASVGDRVTITCRASQSISNYLNWYQQKPGKAPKLLIYTASTLQSGVPSRFSGSGSGTDFTLTISSLQPEDFATYYCQQSYNSPWTFGQGTKVEIK
Kd [6]: 23 pM

Further lines, results first:

binding result [1]: no binding (tested: 50 nM)
B1: 566A-M0073-C11 IgG (antibody, V domains shown)
VH: EVQLLESGGGLVQPGGSLRLSCAASGFTFSPYDMWWVRQAPGKGLEWVSSISSSGGITAYADSVKGRFTISRDNSKNTLYLQMNSLRAEDTAVYYCARAGYSSSWGYYYYGMDVWGQGTTVTVSS
VL: QSALTQPPSVSVSPGQTASITCSGDRLGDKYASWYQQKPGQSPVLVIYQDTKRPSGIPERFSGSNSGSTATLTISGTQAMDEADYYCQAWDSSTVVFGGGTKLTVL
notes: also called 566A-X0003-B02

binding result [1]: no binding (tested: 50 nM)
B3: M0080-G03 IgG (antibody, V domains shown)
VH: EVQLLESGGGLVQPGGSLRLSCAASGFTFSFYQMMWVRQAPGKGLEWVSSISPSGGRTYYADSVKGRFTISRDNSKNTLYLQMNSLRAEDTAVYYCAKDIGLGYCSSTSCYTGTPLDYWGQGTLVTVSS
VL: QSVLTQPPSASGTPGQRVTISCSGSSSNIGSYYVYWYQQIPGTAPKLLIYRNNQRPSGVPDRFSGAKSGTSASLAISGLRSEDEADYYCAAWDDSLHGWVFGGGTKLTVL
notes: also called 566A-M0080-G03; 566A-X0004-A02

Reference: patent US20110262446A1 (published 2011)
